Measured values published in patent publication US8841085 (KOREA INSTITUTE OF SCIENCE AND TECHNOLOGY, dated 2014).
Read-outs that look alike come from different tables or passages of the source. Values belong to the binder of their own block, whether it stands above or below them.

Legend:
Test in all cases: cell-based or functional assay
[1] = target: MMP-3
[2] = target: T1, MMP-7
T1 sequence (P09237 95-267, species assumed, looked up): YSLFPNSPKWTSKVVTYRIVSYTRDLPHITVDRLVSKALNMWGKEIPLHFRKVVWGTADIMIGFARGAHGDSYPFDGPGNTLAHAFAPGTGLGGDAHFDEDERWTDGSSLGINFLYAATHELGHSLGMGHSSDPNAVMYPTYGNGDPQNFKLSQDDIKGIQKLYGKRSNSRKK

[3] = target: MMP-2
[4] = target: MMP-9
[5] = target: MMP-13
[6] = target: MMP-3; remark: listed apart in the source
[7] = target: T1, MMP-7; remark: listed apart in the source
[8] = target: MMP-2; remark: listed apart in the source
[9] = target: MMP-9; remark: listed apart in the source
[10] = target: MMP-13; remark: listed apart in the source
[11] = target: MMP-3; remark: listed apart in the source
[12] = target: T1, MMP-7; remark: listed apart in the source
[13] = target: MMP-2; remark: listed apart in the source
[14] = target: MMP-9; remark: listed apart in the source
[15] = target: MMP-13; remark: listed apart in the source
[16] = target: MMP-3; remark: listed apart in the source
[17] = target: T1, MMP-7; remark: listed apart in the source
[18] = target: MMP-2; remark: listed apart in the source
[19] = target: MMP-9; remark: listed apart in the source
[20] = target: MMP-13; remark: listed apart in the source

- fluorescent intensity (FI) at 0 min [1]: 102
- fluorescent intensity (FI) at 10 min [1]: 128
- fluorescent intensity (FI) at 20 min [1]: 143
- fluorescent intensity (FI) at 30 min [1]: 174
- fluorescent intensity (FI) at 40 min [1]: 200
- fluorescent intensity (FI) at 50 min [1]: 217
- fluorescent intensity (FI) at 60 min [1]: 249
- fluorescent intensity (FI) at 0 min [2]: 104
- fluorescent intensity (FI) at 10 min [2]: 90.1
- fluorescent intensity (FI) at 20 min [2]: 87.6
- fluorescent intensity (FI) at 30 min [2]: 87
- fluorescent intensity (FI) at 40 min [2]: 91.5
- fluorescent intensity (FI) at 50 min [2]: 94.9
- fluorescent intensity (FI) at 60 min [2]: 86.3
- fluorescent intensity (FI) at 0 min [3]: 77.4
- fluorescent intensity (FI) at 10 min [3]: 91
- fluorescent intensity (FI) at 20 min [3]: 125
- fluorescent intensity (FI) at 30 min [3]: 151
- fluorescent intensity (FI) at 40 min [3]: 189
- fluorescent intensity (FI) at 50 min [3]: 238
- fluorescent intensity (FI) at 60 min [3]: 287
- fluorescent intensity (FI) at 0 min [4]: 101
- fluorescent intensity (FI) at 10 min [4]: 106
- fluorescent intensity (FI) at 20 min [4]: 109
- fluorescent intensity (FI) at 30 min [4]: 114
- fluorescent intensity (FI) at 40 min [4]: 128
- fluorescent intensity (FI) at 50 min [4]: 130
- fluorescent intensity (FI) at 60 min [4]: 133
- fluorescent intensity (FI) at 0 min [5]: 101
- fluorescent intensity (FI) at 10 min [5]: 131
- fluorescent intensity (FI) at 20 min [5]: 166
- fluorescent intensity (FI) at 30 min [5]: 234
- fluorescent intensity (FI) at 40 min [5]: 281
- fluorescent intensity (FI) at 50 min [5]: 355
- fluorescent intensity (FI) at 60 min [5]: 456
- fluorescent intensity (FI) recovered after 60 minutes, fold [6]: 2.4 times
- fluorescent intensity (FI) recovered after 60 minutes, fold [7]: 0.8 times
- fluorescent intensity (FI) recovered after 60 minutes, fold [8]: 3.7 times
- fluorescent intensity (FI) recovered after 60 minutes, fold [9]: 1.3 times
- fluorescent intensity (FI) recovered after 60 minutes, fold [10]: 4.3 times
B1: PN3 (P3: Cy5.5-Gly-Pro-Leu-Gly-Met-Arg-Gly-Leu-Gly-Lys(BHQ3)-Gly-Gly-COOH conjugated to glycol chitosan-bile acid nanoparticle) (peptide)
peptide: {Cy5.5}-GPLGMRGLGK(BHQ3)GG-{glycol chitosan‑cholanic acid nanoparticle}
modifications: not fully specified; printed as Cy5.5-Gly-Pro-Leu-Gly-Met-Arg-Gly-Leu-Gly-Lys(BHQ3)-Gly-Gly-COOH

- fluorescent intensity (FI) at 0 min [11]: 336
- fluorescent intensity (FI) at 10 min [11]: 226
- fluorescent intensity (FI) at 20 min [11]: 408
- fluorescent intensity (FI) at 30 min [11]: 843
- fluorescent intensity (FI) at 40 min [11]: 946
- fluorescent intensity (FI) at 50 min [11]: 1070
- fluorescent intensity (FI) at 60 min [11]: 1230
- fluorescent intensity (FI) at 0 min [12]: 328
- fluorescent intensity (FI) at 10 min [12]: 653
- fluorescent intensity (FI) at 20 min [12]: 993
- fluorescent intensity (FI) at 30 min [12]: 1160
- fluorescent intensity (FI) at 40 min [12]: 1250
- fluorescent intensity (FI) at 50 min [12]: 1310
- fluorescent intensity (FI) at 60 min [12]: 1280
- fluorescent intensity (FI) at 0 min [13]: 271
- fluorescent intensity (FI) at 10 min [13]: 245
- fluorescent intensity (FI) at 20 min [13]: 350
- fluorescent intensity (FI) at 30 min [13]: 280
- fluorescent intensity (FI) at 40 min [13]: 335
- fluorescent intensity (FI) at 50 min [13]: 426
- fluorescent intensity (FI) at 60 min [13]: 494
- fluorescent intensity (FI) at 0 min [14]: 182
- fluorescent intensity (FI) at 10 min [14]: 186
- fluorescent intensity (FI) at 20 min [14]: 186
- fluorescent intensity (FI) at 30 min [14]: 187
- fluorescent intensity (FI) at 40 min [14]: 239
- fluorescent intensity (FI) at 50 min [14]: 233
- fluorescent intensity (FI) at 60 min [14]: 248
- fluorescent intensity (FI) at 0 min [15]: 287
- fluorescent intensity (FI) at 10 min [15]: 724
- fluorescent intensity (FI) at 20 min [15]: 1060
- fluorescent intensity (FI) at 30 min [15]: 1230
- fluorescent intensity (FI) at 40 min [15]: 1350
- fluorescent intensity (FI) at 50 min [15]: 1360
- fluorescent intensity (FI) at 60 min [15]: 1370
- fluorescent intensity (FI) recovered after 60 minutes, fold [6]: 3.6 times
- fluorescent intensity (FI) recovered after 60 minutes, fold [7]: 3.9 times
- fluorescent intensity (FI) recovered after 60 minutes, fold [8]: 1.8 times
- fluorescent intensity (FI) recovered after 60 minutes, fold [9]: 1.3 times
- fluorescent intensity (FI) recovered after 60 minutes, fold [10]: 4.8 times
B2: PN2 (P2: Cy5.5-Gly-Val-Pro-Leu-Ser-Leu-Thr-Met-Gly-Lys(BHQ3)-Gly-Gly-COOH conjugated to glycol chitosan-bile acid nanoparticle) (peptide)
peptide: {Cy5.5}-GVPLSLTMGK(BHQ3)GG-{glycol chitosan‑cholanic acid nanoparticle}
modifications: not fully specified; printed as Cy5.5-Gly-Val-Pro-Leu-Ser-Leu-Thr-Met-Gly-Lys(BHQ3)-Gly-Gly-COOH

- fluorescent intensity (FI) recovered after 60 minutes, fold [6]: 2 times
- fluorescent intensity (FI) recovered after 60 minutes, fold [7]: 1 times
- fluorescent intensity (FI) recovered after 60 minutes, fold [8]: 9.7 times
- fluorescent intensity (FI) recovered after 60 minutes, fold [9]: 9.2 times
- fluorescent intensity (FI) recovered after 60 minutes, fold [10]: 12.3 times
- fluorescent intensity (FI) at 0 min [16]: 307
- fluorescent intensity (FI) at 10 min [16]: 285
- fluorescent intensity (FI) at 20 min [16]: 363
- fluorescent intensity (FI) at 30 min [16]: 421
- fluorescent intensity (FI) at 40 min [16]: 506
- fluorescent intensity (FI) at 50 min [16]: 537
- fluorescent intensity (FI) at 60 min [16]: 630
- fluorescent intensity (FI) at 0 min [17]: 278
- fluorescent intensity (FI) at 10 min [17]: 288
- fluorescent intensity (FI) at 20 min [17]: 287
- fluorescent intensity (FI) at 30 min [17]: 290
- fluorescent intensity (FI) at 40 min [17]: 294
- fluorescent intensity (FI) at 50 min [17]: 300
- fluorescent intensity (FI) at 60 min [17]: 302
- fluorescent intensity (FI) at 0 min [18]: 379
- fluorescent intensity (FI) at 10 min [18]: 952
- fluorescent intensity (FI) at 20 min [18]: 1720
- fluorescent intensity (FI) at 30 min [18]: 2390
- fluorescent intensity (FI) at 40 min [18]: 2920
- fluorescent intensity (FI) at 50 min [18]: 3210
- fluorescent intensity (FI) at 60 min [18]: 3660
- fluorescent intensity (FI) at 0 min [19]: 350
- fluorescent intensity (FI) at 10 min [19]: 680
- fluorescent intensity (FI) at 20 min [19]: 1350
- fluorescent intensity (FI) at 30 min [19]: 2010
- fluorescent intensity (FI) at 40 min [19]: 2250
- fluorescent intensity (FI) at 50 min [19]: 2850
- fluorescent intensity (FI) at 60 min [19]: 3220
- fluorescent intensity (FI) at 0 min [20]: 665
- fluorescent intensity (FI) at 10 min [20]: 1930
- fluorescent intensity (FI) at 20 min [20]: 3930
- fluorescent intensity (FI) at 30 min [20]: 5290
- fluorescent intensity (FI) at 40 min [20]: 6510
- fluorescent intensity (FI) at 50 min [20]: 7610
- fluorescent intensity (FI) at 60 min [20]: 8180
B3: PN1 (P1: Cy5.5-Gly-Pro-Leu-Gly-Val-Arg-Gly-Lys(BHQ3)-Gly-Gly-COOH conjugated to glycol chitosan-bile acid nanoparticle) (peptide)
peptide: {Cy5.5}-GPLGVRGK(BHQ3)GG-{glycol chitosan‑cholanic acid nanoparticle}
modifications: not fully specified; printed as Cy5.5-Gly-Pro-Leu-Gly-Val-Arg-Gly-Lys(BHQ3)-Gly-Gly-COOH
